The values below come from US20220033515A1.

In assay [1] the target is human vascular endothelial growth factor (hVEGF) (human) (UniProt P15692). Kind of assay: blocking ELISA: biotin-VEGF with hIgG, capture on Avastin.
In assay [2] the target is hVEGF165 (human) (UniProt P15692). In words: competition ELISA of hIgG, hVEGF165; axis 'Conc (nM)'. (In general: An ELISA detects its analyte on a solid surface through an enzyme-linked reagent.)
Chain of hVEGF165 (human) (P15692 other isoform, or with tags, fused parts or gaps limits assumed): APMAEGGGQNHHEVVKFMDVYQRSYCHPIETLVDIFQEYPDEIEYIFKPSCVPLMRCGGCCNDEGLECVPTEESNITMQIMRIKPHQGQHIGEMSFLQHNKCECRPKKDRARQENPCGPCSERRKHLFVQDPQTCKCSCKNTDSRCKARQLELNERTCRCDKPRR

Chain of human vascular endothelial growth factor (hVEGF) (human) (P15692 other isoform, or with tags, fused parts or gaps limits assumed): as above

G6 hIgG (antibody): the IC50 (read off the curve) in assay [1] and in assay [2] was 3 nM throughout.
